US20020106678A1 (published 2002)

Tests used:
[1] = target: T1, human G protein β2 subunit (human, UniProt P62879 1-340); experiment: tryptic proteolysis protection assay of co-translated β and γ subunits (βγ dimer formation)
Procedure: (§1) βγ interaction was assessed by a tryptic proteolysis assay. Plasmid DNA (1 μg) for each of the β and γ subunits were co-transcribed and co-translated in the TNT-coupled rabbit reticulocyte lysate system (Promega, Madison, Wis.). The plasmid DNA for each of the γ subunits was linearized to limit the generation of translated products of higher molecular weight. […] To increase levels of the γ₁₀ and γ₁₁ subunits 2 μg of capped RNA were added to the co-transcribed β-γ mix. Alternatively, γ₁₀ and γ₁₁ subunits that had been translated separately were added to the co-translated β-γ mix. For tryptic digestion, 5 or 10 μl aliquots of the co-translated β-γ mix were digested by addition of 1 μl trypsin (1 μg) in a final volume of 20 μl (with 50 mM Na-HEPES, pH 8.0) After incubation for 1 hour at 30° C., the digestions were stopped by addition of Laemmli sample buffer and boiling for 3 minutes. Protected fragments of β were visualized by running samples on 15% SDS-PAGE gels. After electrophoresis, gels were fixed in 40% methanol/10% acetic acid mix, soaked in ENHANCE (DuPont-NEN, Boston, Mass.), and dried. The dried gels were exposed for 8 to 48 hours at −80° C.

[2] = target: T1, human G protein β2 subunit; experiment: tryptic proteolysis protection assay of co-translated β and γ subunits (rabbit reticulocyte lysate, SDS-PAGE)
Procedure: as §1

T1 sequence (P62879 whole entry): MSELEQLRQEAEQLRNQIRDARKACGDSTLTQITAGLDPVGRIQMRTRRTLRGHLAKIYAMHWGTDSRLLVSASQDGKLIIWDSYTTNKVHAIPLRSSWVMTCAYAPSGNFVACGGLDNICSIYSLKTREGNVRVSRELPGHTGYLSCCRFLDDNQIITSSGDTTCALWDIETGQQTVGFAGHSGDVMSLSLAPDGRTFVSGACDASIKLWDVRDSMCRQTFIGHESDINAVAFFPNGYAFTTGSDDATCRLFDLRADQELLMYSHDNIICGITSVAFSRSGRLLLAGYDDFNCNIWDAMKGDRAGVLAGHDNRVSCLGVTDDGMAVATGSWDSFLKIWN

Row | Binder | binding result [1] | binding result [2]
1 | human G protein γ4 subunit (other, modified by a geranylgeranyl group (residue not stated)) MKEGMSNNSTTSISQARKAVEQLKMEACMDRVKVSQAAADLLAYCEAHVREDPLIIPVPASENPFREKKFFCTIL | binds | –
2 | human G protein γ11 subunit (other, modified by a farnesyl group (residue not stated)) MPALHIEDLPEKEKLKMEVEQLRKEVKLQRQQVSKCSEEIKNYIEERSGEDPLVKGIPEDKNPFKEKGSCVIS | – | no binding
